Legend:
[1] = target: the molecule itself; assay: SEC
[2] = target: rabbit muscle actin, polymerized (F-actin) (rabbit, UniProt P68135 1-377); assay: co-sedimentation

Kd [2]: 1830 nM
B1: NtWLIM2–His (recombinant tobacco LIM protein WLIM2, 6xHis-tagged) (natural protein, Nicotiana tabacum (tobacco), UniProt P93356 1-189, looked up)
chain: MSFIGTQQKCKACEKTVYPVELLSADGVNYHKSCFKCSHCKGTLKLSNFSSMEGVLYCKPHFEQLFKESGNFNKNFQSPAKSAEKLTPELTRSPSKAAGMFSGTQEKCATCGKTAYPLEKVTVENQSYHKTCFKCSHGGCSLSPSNYAALNGILYCKPHFSQLFKEKGSYNHLIKSASMKRPAATVPDS
stoichiometry N [1]: 2
